T1: OxyS (Mycobacterium tuberculosis) (UniProt L7N677)
T1 sequence: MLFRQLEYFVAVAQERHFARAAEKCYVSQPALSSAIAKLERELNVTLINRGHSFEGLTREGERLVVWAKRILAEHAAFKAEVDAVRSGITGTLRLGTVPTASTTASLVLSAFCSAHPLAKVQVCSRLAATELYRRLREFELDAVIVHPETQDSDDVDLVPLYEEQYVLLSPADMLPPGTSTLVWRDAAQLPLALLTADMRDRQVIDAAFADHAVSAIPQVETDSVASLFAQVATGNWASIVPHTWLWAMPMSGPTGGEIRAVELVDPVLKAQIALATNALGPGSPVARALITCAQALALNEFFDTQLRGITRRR

T2: OxyS (Mycobacterium tuberculosis, UniProt L7N677 1-314)
T2 sequence: T1 sequence

B1: OxyS box1mut (dsDNA)
DNA 1: TGTCCCACGGCCTCGCCCCAT
DNA 2: ATGGGGCGAGGCCGTGGGACA
B2: OxyS box1 (dsDNA)
DNA 1: TGTCTGACGGCCTCGGACCAT
DNA 2: ATGGTCCGAGGCCGTCAGACA

Experiments:
[1] = target: T1, OxyS (Mycobacterium tuberculosis); experiment: EMSA; details: 20 mM Tris-HCl pH 7.5, 100 mM NaCl, 2 mM EDTA, room temperature 20 min
[2] = target: T1, OxyS (Mycobacterium tuberculosis); experiment: competition; details: 20 mM Tris-HCl pH 7.5, 100 mM NaCl, 2 mM EDTA, room temperature 20 min
OxyS = target: T2, OxyS; experiment: EMSA; 0-300 nM OxyS; 20 mM Tris-HCl pH 7.5, 100 mM NaCl, 2 mM EDTA, room temperature 20 min; […]; details: protein: recombinant; tags: 6xHis (pET28a); chain copies: 4; label: 5'-FITC on forward strand; blunt

| Molecule | binding [1] | binding [2] | binding result (OxyS) |
| --- | --- | --- | --- |
| CCGATGTCGACTGTGCTGTTGGCGAGGCACCCTGTCTGACGGCCTCGGACCATAACGGCTTCCTGTTGGACGAGGCGGAGGTCATCTACTGGGGTCTATGTCCTGATTGTTCGATATCCGACACTTCGCGATCACATCCGTGATCACAGCCCGATAACACCAACTCCTGGAAGGAATGCT (double strand) [katGp2] | binds | binds | – |
| TCGACATCGGCGATAACCCCGCAAGACCGGCAGACGATGTGATGGTGGTTGTCGCCGACCCTGGACTCGTAGCGCGCGACGGAGCCCGAGGGTTGGATCTTTCGCACCAAGCCCGCGGCGGTCAGGGCATGCAGCACGTCGTACACGGCTTGCCGGGATACGTCGGGCAGCGCAAAACGC (double strand) [katGp1] | no binding | no binding | – |
| B1 | – | – | no binding |
| B2 | – | – | binds |

From PMC3260234
